Drawing on patent US20150104459A1, this text covers Trimeric HA Binding RLU for 1 molecule.

The experiment has as its target recombinant soluble homotrimeric HA of A/common magpie/Hong Kong/5052/07 (H5N1) (Influenza A virus A/common magpie/Hong Kong/5052/2007 (H5N1)). Description: HA microarray, control mAb. The note with it: remark: other sources report otherwise.

B1: TCN-504 (3251_K17) (antibody, V domains shown)
VH: QVQLQESGPGLVKPSETLSLTCAVSGVSISNIDFYWGWIRQPPGKGLEWIGNIYYTGITFYNPSLSSRVAISIDTSKNQFSLTLTSVTAADTAMYYCARHYGDSEAINDAFDIWGQGTMLTVSS
VL: EIVMTQSPATLSVSPGERATLSCRASQSVGNSLAWYQQRPGQAPRLLIYGASTRATGIPPRFSGSGSGTEFTLTISSLQTEDFAVYYCQQYINWRPLSFGGGTKVEIK
For the molecule B1, the Trimeric HA Binding RLU turned out to be 17000 RLU.
